We go through three molecules from patent publication US20200385685A1, “ROBUST DIFFERENTIATION OF HUMAN PLURIPOTENT STEM CELLS INTO ENDOTHELIAL CELLS USING TRANSCRIPTION FACTOR ETV2” (Children`s Medical Center Corporation, priority 2019, published 2020).

The subject of data set [1] is h-MPCs. Description: Immunofluorescence staining for ETV2 after transfection with modRNA. Format: cell-based, human. To be noted: 6 h after transfection of h-MPCs. As to the method: Cells were seeded in 8-well LAB-TEK chamber slides at a density of 60,000 cell s/cm^2. After confluency, cells were fixed in 4% paraformaldehyde (PFA), permeabilized with 0.1% Triton X-100 in PBS, and then blocked for 30 min in 5% horse serum (Vector, Cat No. 5-2000). Subsequently, cells were incubated with primary antibodies for 30 min at room temperature (RT). Cells were washed 3 times with PBS and then incubated with secondary antibodies for 30 min at RT. Cells were washed 3 times with PBS and stained with 0.5 μg/mL DAPI for 5 min. Slides were mounted with DAKO fluorescence mounting medium (Agilent, Cat No. 5302380-2). Antibody information is detailed in Table 8, above.

In data set [2] the test system is h-MPCs. Description: Conversion of h-MPCs into h-iECs after transfection with modRNA(ETV2), flow cytometry. The conditions noted are these: for percentage of h-iECs at 96 h: above 0.5 μg of modRNA(ETV2) per 10^6 h-iPSCs. Type of data set: cell-based, human. From the text:
Antibody information is detailed in Table 8.
In general terms: A flow cytometer gives signals particle by particle.

Where two headings read alike, the source gives them in different places. Where only a bound is given, the exact number is not on record here.

Description for h-iPSCs: S1-modETV2 protocol (4 days)—h-iPSCs were dissociated into single cells with TrypLE select and plated on Matrigel at a density of 60,000 cells/cm^2 in mTeSR1 medium with 10 μM Y27632. After 24 h, the medium was changed to S1 medium consisting of basal medium supplemented with 6 μM CHIR99021. Basal medium was prepared by adding 1× GlutaMax supplement and 60 μg/mL L-Ascorbic acid into Advanced DMEM/F12. After 48 h, h-MPCs were dissociated into single cells and then transfected with modRNA(ETV2) by either electroporation or lipofection. For electroporation, 2 million h-MPCs were resuspended in 100 μL buffer mixed with 1 μg modETV2. Electroporated cells were then seeded on a 60-mm Matrigel-coated dish in modETV2 medium consisting of basal medium supplemented with 50 ng/mL VEGF-A, 50 ng/mL FGF-2, 10 ng/mL EGF and 10 μM SB431542. For lipofection, 3 μL lipofectamine RNAiMax (ThermoFisher, Cat No. 13778030) were diluted in 50 μL Opti-MEM (ThermoFisher, Cat No. 31985062) and 0.6 μg modRNA(ETV2) diluted in another 50 μL Opti-MEM. Lipofectamine and modRNA(ETV2) were then mixed and incubated for 15 min at room temperature. The lipid/RNA complex was added to 0.5 million h-MPCs in modETV2 medium and transfected cells were then seeded on a 35-mm Matrigel-coated dish. Upon transfection (electroporation or lipofection), cells were cultured for another 48 h before purification. Medium was changed every day throughout this protocol (Table 2). modRNA encoding GFP (TriLink, Cat No. L-7601) at a concentration of 0.2 μg per million h-MPCs served as negative control.
S1-S2, method #1 (4 days)—h-iPSCs were dissociated into single cells with TrypLE select and plated on Matrigel at a density of 60,000 cells/cm^2 in mTeSR1 medium with 10 μM Y27632. […]
Cells were dissociated into single-cell suspensions using TrypLE and washed with PBS supplemented with 100BSA and 0.2 mM EDTA. In indicated experiments, cells were stained with flow cytometry antibodies and analyzed using a Guava easyCyte 6HT/2L flow cytometer (Millipore Corporation, Billerica, Mass.) and FlowJo software (Tree Star Inc., Ashland, Oreg.). […]

With VEGF, in the data set on h-iPSCs (S1-S2 protocol, beyond 50 ng/mL), the “proportion of ETV2+ cells and subsequent conversion to CD31+ h-iECs” value is listed as “failed to further increase”.
Take `Cc1cc(C)c(/C=C2\C(=O)Nc3ccccc32)[nH]1` [SU5416]: the figures for the “h-iECs at 96 h” value with h-iPSCs (S1-S2 protocol) and in the data set on h-iPSCs (S1-modETV2 protocol) were under 2% and 94%, respectively.

B1: modRNA(ETV2): Chemically modified mRNA encoding ETV2, transcript variant 1 (NM_014209.3), SEQ ID NO: 1, generated by TriLink BioTechnologies (nucleic acid, listed as Homo sapiens)
chain: ATGGACCTGTGGAACTGGGATGAGGCATCCCCACAGGAAGTGCCTCCAGGGAACAAGCTGGCAGGGCTTGAAGGAGCCAAATTAGGCTTCTGTTTCCCTGATCTGGCACTCCAAGGGGACACGCCGACAGCGACAGCAGAGACATGCTGGAAAGGTACAAGCTCATCCCTGGCAAGCTTCCCACAGCTGGACTGGGGCTCCGCGTTACTGCACCCAGAAGTTCCATGGGGGGCGGAGCCCGACTCTCAGGCTCTTCCGTGGTCCGGGGACTGGACAGACATGGCGTGCACAGCCTGGGACTCTTGGAGCGGCGCCTCGCAGACCCTGGGCCCCGCCCCTCTCGGCCCGGGCCCCATCCCCGCCGCCGGCTCCGAAGGCGCCGCGGGCCAGAACTGCGTCCCCGTGGCGGGAGAGGCCACCTCGTGGTCGCGCGCCCAGGCCGCCGGGAGCAACACCAGCTGGGACTGTTCTGTGGGGCCCGACGGCGATACCTACTGGGGCAGTGGCCTGGGCGGGGAGCCGCGCACGGACTGTACCATTTCGTGGGGCGGGCCCGCGGGCCCGGACTGTACCACCTCCTGGAACCCGGGGCTGCATGCGGGTGGCACCACCTCTTTGAAGCGGTACCAGAGCTCAGCTCTCACCGTTTGCTCCGAACCGAGCCCGCAGTCGGACCGTGCCAGTTTGGCTCGATGCCCCAAAACTAACCACCGAGGTCCCATTCAGCTGTGGCAGTTCCTCCTGGAGCTGCTCCACGACGGGGCGCGTAGCAGCTGCATCCGTTGGACTGGCAACAGCCGCGAGTTCCAGCTGTGCGACCCCAAAGAGGTGGCTCGGCTGTGGGGCGAGCGCAAGAGAAAGCCGGGCATGAATTACGAGAAGCTGAGCCGGGGCCTTCGCTACTACTATCGCCGCGACATCGTGCGCAAGAGCGGGGGGCGAAAGTACACGTACCGCTTCGGGGGCCGCGTGCCCAGCCTAGCCTATCCGGACTGTGCGGGAGGCGGACGGGGAGCAGAGACACAATAA
modifications: chemically modified nucleosides
Consider B1, for which the “cells expressing ETV2” value in the data set on h-MPCs [1] is over 85%. The “cells that were endothelial (VE-Cadherin+/CD31+ cells)” value with h-MPCs [2] (48 h after transfection of h-MPCs) came out at 95%. The “percentage of h-iECs at 96 h” value is 95% in the data set with h-MPCs [2] (electroporation) and 75% in the data set on h-MPCs [2] (lipofection).
